Experimental data published in US20090074762A1.

Biological target: T1, TweakR on cells (TweakR-expressing cells, TweakR transfectant cell line, A375 melanoma cells, tumor tissue) (human) (UniProt Q9NP84)
T1 sequence: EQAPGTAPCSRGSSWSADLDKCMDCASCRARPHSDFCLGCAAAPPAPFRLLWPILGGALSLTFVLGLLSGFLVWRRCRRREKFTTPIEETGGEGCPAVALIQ
Experiment: cell-based or functional assay

- agonist activity (IL-8 release assay): 28%
Substance: anti-TweakR antibody ITEM2
